The target in series [1] is strep-tagged QseE_(1-196) (Salmonella enterica serovar Typhimurium SL1344). As to the kind of experiment: cross-linking; QseE constructs in solution (Fig. S2A); cross-linker and conditions not shown.
Series [2] deals with the molecule itself. Kind of series: cryo-EM structure; QseG_(37-221) and QseE mixed at 3:1 molar ratio, complex separated by SEC; 3.9 Å map with C2 symmetry imposed; model limited to QseG 58-220 and QseE 34-173. For orientation: Size exclusion chromatography separates by hydrodynamic size, large species first.
In the next series the target is T1, QseE (Escherichia coli, UniProt Q8XA47).
T1 chain: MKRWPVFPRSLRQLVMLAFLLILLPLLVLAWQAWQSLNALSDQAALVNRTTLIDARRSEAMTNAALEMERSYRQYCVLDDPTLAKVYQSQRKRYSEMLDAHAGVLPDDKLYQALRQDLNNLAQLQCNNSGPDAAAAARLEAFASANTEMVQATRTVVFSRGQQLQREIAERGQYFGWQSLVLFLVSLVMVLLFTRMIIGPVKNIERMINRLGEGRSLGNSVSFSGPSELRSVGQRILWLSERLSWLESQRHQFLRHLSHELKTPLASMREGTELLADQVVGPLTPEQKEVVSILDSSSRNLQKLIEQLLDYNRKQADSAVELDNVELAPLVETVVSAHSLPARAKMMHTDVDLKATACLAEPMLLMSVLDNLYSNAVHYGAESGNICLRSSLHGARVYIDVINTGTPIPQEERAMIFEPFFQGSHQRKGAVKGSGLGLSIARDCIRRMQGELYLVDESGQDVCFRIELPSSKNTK

The target in another series is T2, QseE-eGFP (Salmonella enterica serovar Typhimurium …, UniProt A0A4Z0KJZ8 1-461).
T2 construct: QseE of S. Typhimurium SL1344 fused to eGFP; source: E. coli, purified
T2 sequence: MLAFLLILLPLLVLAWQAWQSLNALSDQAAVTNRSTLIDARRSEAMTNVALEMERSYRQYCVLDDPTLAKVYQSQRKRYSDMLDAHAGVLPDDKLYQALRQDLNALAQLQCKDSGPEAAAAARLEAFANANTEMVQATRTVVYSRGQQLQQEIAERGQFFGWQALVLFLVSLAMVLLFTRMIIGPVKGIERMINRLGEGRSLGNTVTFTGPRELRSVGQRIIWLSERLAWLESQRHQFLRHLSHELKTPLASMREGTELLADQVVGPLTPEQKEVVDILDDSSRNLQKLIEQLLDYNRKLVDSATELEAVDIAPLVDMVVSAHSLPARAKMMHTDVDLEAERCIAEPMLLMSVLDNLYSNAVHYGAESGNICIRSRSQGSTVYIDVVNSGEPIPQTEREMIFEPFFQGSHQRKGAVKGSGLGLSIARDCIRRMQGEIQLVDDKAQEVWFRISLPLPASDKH
As to the kind of experiment: MST; QseG_(37-end) in serial dilution mixed with QseE-eGFP; 20 mM HEPES pH 7.5, 150 mM NaCl, 0.02% DDM, 0.05% Tween 20; 25°C, 30 min; Monolith NT.115, medium MST power, 40% LED. The note with it: both partners purified.

A word on the stoichiometry N: it is the number of molecules, sites or subunits per partner or assembly. In series [1], “strep-tagged QseE_(1-196) (from UniProt A0A4Z0KJZ8 1-196) (domain or fragment)” displayed a stoichiometry N of 2.

B1: full-length QseE (QseEfl), C-terminal Strep II tag (natural protein)
chain: T2 sequence
notes: Dimer by cross-linking and in the cryo-EM structure; also called strep-tagged QseE; source: E. coli C43(DE3), purified from membranes in LMNG/CHS (Strep-Tactin, SEC); not shown: Strep II, C-terminal, kept
On to B1, for which the “stoichiometry N” value in series [2] is 2.

B2: QseG_(37-221) (domain or fragment)
chain: CVPHASQQLPDSAAQDTLPHYQLADYLPTACADIWSLRGQAVETNPLYWLRTIDCADRLMPVQSRAEARALTDDNWQNAFRRGILLADAKITPPERRAIVTRLEALSAQIPAQVRPVYQIWHDGQALQLALSAERQRYSKLQQTSDSELDALRQQQQALQTQLDLTTRKLESLTDIERQLSTRKP
notes: QseG of S. Typhimurium SL1344, residues 37-221; Homodimer in the cryo-EM structure of the complex; source: E. coli C43(DE3), purified (Strep-Tactin, on-column TEV cleavage, SEC); not shown: Strep II, N-terminal, cleaved
Take B2: the “stoichiometry N” value in series [2] came to 2.

B3: QseG (protein)
chain: CVQNHNKPAIDTPAEEKIPVYQLADYLSTECSDIWALQGKSTETNPLYWLRAMDCADRLMPAQSRQQARQYDDGSWQNTFKQGILLADAKITPYERRQLVARIEALSTEIPAQVRPLYQLWRDGQALQLQLAEERQRYSKLQQSSDSELDTLRQQHHVLQQQLELTTRKLENLTDIERQLSTRKPAGNFSPDTPHESEKPAPSTHEVTPDEP
In general, Kd refers to the constant that tells how readily two partners part at equilibrium. A high value points to lower affinity. B3 showed a Kd with QseE of 109 nM.

B4: QseG (mature lipoprotein, QseG_(37-end)) (natural protein)
chain: CVPHASQQLPDSAAQDTLPHYQLADYLPTACADIWSLRGQAVETNPLYWLRTIDCADRLMPVQSRAEARALTDDNWQNAFRRGILLADAKITPPERRAIVTRLEALSAQIPAQVRPVYQIWHDGQALQLALSAERQRYSKLQQTSDSELDALRQQQQALQTQLDLTTRKLESLTDIERQLSTRKPAGNYNADTPHTNDKPATSEDGAAPSPSQDEVTP
notes: also called wild-type QseG; source: E. coli C43(DE3), purified (Strep-Tactin, on-column TEV cleavage, SEC); not shown: Strep II, N-terminal, cleaved
In turn, B4 came in with a Kd with QseE-eGFP of 108 nM.

Source of the values: article PMC12691602, “Cryo-EM structure of the QseG-QseE complex reveals an accessory protein-driven two-component system activation mechanism” (mBio, 2025).
